Molecular target: S. cerevisiae Nup84-GFP (S. cerevisiae) (UniProt P52891)
Experiment: signal to noise ratio of Coomassie bands, Nup84-GFP affinity isolation on LaG-Dynabeads

B1: LaG-8 (VHH)
VHH: QVQLVESGGGLVQHGGSLRLSCVTSGFTFDIHDMGWFRQAPGKERDIVARISKSGDITYYADSVKGRFIISRDNTKNTVYLQMNSLKPEDTAVYYCAATLRATITSFDEYVYRGQGTQVTVS
Binder B1 has a Nup84-GFP S:N of 0.1.

Source: patent US20170212130A1
